US20170190751A1 (published 2017)

biological target: mouse megalin (mouse, UniProt A2ARV4 26-4660); experiment: cell-based or functional assay
Sequence (A2ARV4 26-4660 limits assumed): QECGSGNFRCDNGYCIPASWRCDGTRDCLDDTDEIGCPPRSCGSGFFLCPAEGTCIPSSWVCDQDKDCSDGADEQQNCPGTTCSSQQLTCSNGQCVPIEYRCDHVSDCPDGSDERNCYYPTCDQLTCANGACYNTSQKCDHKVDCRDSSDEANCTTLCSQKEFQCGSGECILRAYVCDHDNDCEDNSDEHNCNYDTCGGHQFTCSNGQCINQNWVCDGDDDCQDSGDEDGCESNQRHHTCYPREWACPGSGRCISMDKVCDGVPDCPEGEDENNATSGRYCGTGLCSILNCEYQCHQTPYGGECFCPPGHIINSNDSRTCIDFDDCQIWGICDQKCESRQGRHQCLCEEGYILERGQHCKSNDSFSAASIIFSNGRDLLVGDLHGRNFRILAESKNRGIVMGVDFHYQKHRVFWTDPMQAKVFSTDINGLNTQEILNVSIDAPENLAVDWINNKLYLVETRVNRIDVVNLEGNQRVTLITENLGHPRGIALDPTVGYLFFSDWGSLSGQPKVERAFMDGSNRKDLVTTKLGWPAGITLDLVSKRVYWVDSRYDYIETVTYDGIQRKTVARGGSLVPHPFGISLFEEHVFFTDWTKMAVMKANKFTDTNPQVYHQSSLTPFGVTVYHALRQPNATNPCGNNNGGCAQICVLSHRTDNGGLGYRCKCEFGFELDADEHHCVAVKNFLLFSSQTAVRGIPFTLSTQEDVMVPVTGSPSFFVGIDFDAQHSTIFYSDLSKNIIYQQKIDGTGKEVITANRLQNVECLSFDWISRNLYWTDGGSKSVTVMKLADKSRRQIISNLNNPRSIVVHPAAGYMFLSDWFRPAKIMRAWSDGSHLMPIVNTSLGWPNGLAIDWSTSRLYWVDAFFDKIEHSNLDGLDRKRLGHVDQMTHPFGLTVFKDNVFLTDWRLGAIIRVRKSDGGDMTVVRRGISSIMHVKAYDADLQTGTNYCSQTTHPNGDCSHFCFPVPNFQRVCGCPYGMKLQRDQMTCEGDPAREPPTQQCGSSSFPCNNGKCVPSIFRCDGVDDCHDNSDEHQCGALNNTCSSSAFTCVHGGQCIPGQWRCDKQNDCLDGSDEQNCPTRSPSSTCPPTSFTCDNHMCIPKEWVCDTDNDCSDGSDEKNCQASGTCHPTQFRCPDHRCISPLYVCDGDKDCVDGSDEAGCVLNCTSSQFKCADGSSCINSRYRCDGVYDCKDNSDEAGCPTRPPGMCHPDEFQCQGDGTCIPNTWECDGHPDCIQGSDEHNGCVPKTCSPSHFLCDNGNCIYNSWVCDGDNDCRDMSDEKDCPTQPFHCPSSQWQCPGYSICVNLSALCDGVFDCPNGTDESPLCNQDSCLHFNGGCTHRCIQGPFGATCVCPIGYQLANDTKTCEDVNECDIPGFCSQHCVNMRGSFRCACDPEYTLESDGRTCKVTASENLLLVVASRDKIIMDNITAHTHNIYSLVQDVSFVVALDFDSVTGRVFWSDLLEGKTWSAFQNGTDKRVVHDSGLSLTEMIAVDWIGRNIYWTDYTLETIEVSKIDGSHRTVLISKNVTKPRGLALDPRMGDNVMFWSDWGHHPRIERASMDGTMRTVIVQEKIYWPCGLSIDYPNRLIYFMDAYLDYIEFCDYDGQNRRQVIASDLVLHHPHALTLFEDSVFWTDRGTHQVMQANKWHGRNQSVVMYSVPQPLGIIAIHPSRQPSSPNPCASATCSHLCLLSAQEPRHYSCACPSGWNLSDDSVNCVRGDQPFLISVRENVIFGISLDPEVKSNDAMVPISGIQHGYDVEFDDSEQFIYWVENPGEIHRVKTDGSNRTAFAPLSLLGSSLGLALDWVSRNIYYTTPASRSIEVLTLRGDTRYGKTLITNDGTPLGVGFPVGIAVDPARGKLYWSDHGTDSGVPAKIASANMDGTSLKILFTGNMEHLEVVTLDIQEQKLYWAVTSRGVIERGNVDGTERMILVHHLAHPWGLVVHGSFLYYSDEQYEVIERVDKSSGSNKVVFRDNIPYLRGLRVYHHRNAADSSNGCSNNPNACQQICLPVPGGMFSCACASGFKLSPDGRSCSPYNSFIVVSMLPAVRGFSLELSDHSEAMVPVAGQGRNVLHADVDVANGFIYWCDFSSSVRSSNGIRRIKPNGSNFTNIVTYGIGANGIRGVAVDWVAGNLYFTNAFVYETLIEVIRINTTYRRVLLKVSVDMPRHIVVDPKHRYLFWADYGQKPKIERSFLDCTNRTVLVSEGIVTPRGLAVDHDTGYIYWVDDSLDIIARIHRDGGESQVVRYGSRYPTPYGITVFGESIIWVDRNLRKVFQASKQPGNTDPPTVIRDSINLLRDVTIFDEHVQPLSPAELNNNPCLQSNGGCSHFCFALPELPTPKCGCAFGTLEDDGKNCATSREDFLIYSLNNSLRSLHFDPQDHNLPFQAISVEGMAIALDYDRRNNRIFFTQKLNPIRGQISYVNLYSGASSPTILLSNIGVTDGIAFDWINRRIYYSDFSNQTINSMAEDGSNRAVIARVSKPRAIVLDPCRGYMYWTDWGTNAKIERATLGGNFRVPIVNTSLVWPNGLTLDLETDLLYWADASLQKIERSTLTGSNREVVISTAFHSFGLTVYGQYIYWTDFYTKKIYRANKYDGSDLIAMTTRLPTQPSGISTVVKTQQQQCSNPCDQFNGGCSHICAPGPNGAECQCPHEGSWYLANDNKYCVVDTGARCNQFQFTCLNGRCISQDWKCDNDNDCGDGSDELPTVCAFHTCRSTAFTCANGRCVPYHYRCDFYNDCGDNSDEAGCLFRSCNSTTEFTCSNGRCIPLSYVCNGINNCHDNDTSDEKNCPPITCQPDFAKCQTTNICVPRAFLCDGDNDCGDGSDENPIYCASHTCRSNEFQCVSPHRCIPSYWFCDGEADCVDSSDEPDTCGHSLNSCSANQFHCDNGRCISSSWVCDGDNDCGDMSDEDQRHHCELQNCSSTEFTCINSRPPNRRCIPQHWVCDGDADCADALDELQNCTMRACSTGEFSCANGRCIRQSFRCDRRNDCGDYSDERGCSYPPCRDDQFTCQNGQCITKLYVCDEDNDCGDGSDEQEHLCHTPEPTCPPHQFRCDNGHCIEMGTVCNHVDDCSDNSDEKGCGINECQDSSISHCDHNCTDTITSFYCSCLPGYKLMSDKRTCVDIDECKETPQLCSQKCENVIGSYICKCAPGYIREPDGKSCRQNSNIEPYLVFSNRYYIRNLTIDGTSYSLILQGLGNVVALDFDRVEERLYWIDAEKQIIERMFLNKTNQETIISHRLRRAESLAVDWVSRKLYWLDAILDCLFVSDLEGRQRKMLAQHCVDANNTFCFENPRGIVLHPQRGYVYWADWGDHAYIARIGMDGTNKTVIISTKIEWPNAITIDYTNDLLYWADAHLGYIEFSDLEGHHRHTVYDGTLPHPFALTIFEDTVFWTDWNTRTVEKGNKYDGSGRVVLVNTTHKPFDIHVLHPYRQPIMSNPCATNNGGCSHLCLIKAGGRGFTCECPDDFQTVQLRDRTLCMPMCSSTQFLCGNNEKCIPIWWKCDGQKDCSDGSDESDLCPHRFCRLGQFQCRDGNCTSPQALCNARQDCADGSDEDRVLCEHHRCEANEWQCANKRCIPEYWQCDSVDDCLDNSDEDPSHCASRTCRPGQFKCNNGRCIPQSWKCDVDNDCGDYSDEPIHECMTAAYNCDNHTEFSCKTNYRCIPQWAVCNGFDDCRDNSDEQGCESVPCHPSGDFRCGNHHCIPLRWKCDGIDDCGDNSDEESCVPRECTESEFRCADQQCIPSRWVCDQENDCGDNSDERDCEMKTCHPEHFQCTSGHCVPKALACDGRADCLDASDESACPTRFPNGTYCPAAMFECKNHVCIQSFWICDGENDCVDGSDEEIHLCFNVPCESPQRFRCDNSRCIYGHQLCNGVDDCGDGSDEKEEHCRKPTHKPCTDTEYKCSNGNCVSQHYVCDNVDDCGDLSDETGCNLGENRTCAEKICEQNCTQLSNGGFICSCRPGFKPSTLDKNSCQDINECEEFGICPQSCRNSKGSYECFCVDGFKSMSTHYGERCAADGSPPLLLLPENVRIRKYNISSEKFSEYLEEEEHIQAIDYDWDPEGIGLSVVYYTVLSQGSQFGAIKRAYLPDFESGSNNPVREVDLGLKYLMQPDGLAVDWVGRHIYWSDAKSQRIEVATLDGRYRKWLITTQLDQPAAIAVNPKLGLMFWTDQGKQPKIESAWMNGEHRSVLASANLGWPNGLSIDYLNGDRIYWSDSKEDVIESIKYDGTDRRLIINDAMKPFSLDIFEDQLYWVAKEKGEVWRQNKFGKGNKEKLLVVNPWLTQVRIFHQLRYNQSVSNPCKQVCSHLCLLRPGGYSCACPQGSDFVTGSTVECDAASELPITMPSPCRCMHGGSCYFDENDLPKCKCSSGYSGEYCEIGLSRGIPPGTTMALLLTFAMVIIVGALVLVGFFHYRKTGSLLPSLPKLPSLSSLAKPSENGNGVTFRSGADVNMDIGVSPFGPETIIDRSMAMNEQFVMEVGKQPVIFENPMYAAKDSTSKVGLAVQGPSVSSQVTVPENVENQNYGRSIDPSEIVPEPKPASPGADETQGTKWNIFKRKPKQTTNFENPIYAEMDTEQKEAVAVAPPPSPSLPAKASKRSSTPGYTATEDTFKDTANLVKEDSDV

Binder	% of i.p. injected NGAL-enterochelin-55Fe3+ complex delivered to mouse urine after 3 hours (escape from renal reabsorption) [%]
I1 NGAL mutant (ligand) QDSTSDLIPAPPLSSVPLQQNFQDNQFQGKWYVVGLAGNAILREDKDPQKMYATIYELKEDKSYNVTSVLFRDDGCDYWIRTFVPGCQPGEFTLGNIKSYPGLTSYLVRVVSTNYNQHAMVFFKKVSQNQEYFKITLYGRTKELTSELKENFIRFSKSLGLPENHIVFPVPIDQCIDG	6
K2 NGAL mutant (ligand) QDSTSDLIPAPPLSSVPLQQNFQDNQFQGKWYVVGLAGNAILREDKDPQKMYATIYELKEDKSYNVTSVLFRDDGCDYWIRTFVPGCQPGEFTLGNIQSYPGLTSYLVRVVSTNYNQFAMVFFKKVSQNQEYFKITLYGRTKELTSELQENFIRFSKSLGLPENNIVFPVPIDQCIDG	9.3
I5 NGAL mutant (ligand) QDSTSDLIPAPPLSSVPLQQNFQDNQFQGKWYVVGLAGNAILREDKDPQKMYATIYELKEDGSYNVTSVLFRDDGCDYWIRTFVPGCQPGEFTLGNIKSYPGLTSYLVRVVSTNYNQHAMVFFKKVSQNQEYFKITLYGRTKELTSELKENFIRFSKSLGLPENHIVFPVPIDQCIDG	0.05
K1 NGAL mutant (ligand) QDSTSDLIPAPPLSSVPLQQNFQDNQFQGKWYVVGLAGNAILREDEDPQKMYATIYELQEDKSYNVTSVLFRKKKCDYWIRTFVPGCQPGEFTLGNIQSYPGLTSYLVRVVSTNYNQFAMVFFKKVSQNQEYFKITLYGRTKELTSELQENFIRFSKSLGLPENNIVFPVPIDQCIDG	1.9
I3 NGAL mutant (ligand) QDSTSDLIPAPPLSKVPLQQNFQDNQFQGKWYVVGLAGNAILREDKDPQKMYATIYELKEDGSYNVTSVLFRDDGCDYWIRTFVPGCQPGEFTLGNIQSYPGLTSYLVRVVSTNYNQHAMVFFKKVSQNREYFKITLYGRTKELTSELKENFIRFSKSLGLPENHIVFPVPIDQCIDG	6.9
K5 NGAL mutant (ligand) QDSTSDLIPAPPLSSVPLQQNFQDNQFQGKWYVVGLAGNAILREDEDPQKMYATIYELKEDKSYNVTSVLFRKKKCDYWIRTFVPGCQPGEFTLGNIQSYPGLTSYLVRVVSTNYNQFAMVFFKKVSQNQEYFKITLYGRTKELTSELQENFIRFSKSLGLPENNIVFPVPIDQCIDG	2.9
A2 NGAL mutant (ligand) QDSTSDLIPAPPLSSVPLQQNFQDNQFQGKWYVVGLAGNAILREDKDPQKMYATIYELKEDKSYNVTSVLFRKKKCDYWIRTFVPGCQPGEFTLGNIKSYPGLTSYLVRVVSTNYNQHAMVFFKKVSQNREYFKITLYGQTQELTSELKENFIRFSKSLGLPENHIVFPVPIDQCIDG	0.18
F2 NGAL mutant (ligand) QDSTSDLIPAPPLSKVPLQQNFQDNQFQGKWYVVGLAGNAILREDEDPQKMYATIYELQEDKSYNVTSVLFRKKKCDYWIRTFVPGCQPGEFTLGNIKSYPGLTSYLVRVVSTNYNQHAMVFFKKVSQNREYFKITLYGRTKELTSELKENFIRFSKSLGLPENHIVFPVPIDQCIDG	0.11
G3 NGAL mutant (ligand) QDSTSDLIPAPPLSKVPLQQNFQDNQFQGKWYVVGLAGNAILREDKDPQKMYATIYELKEDKSYNVTSVLFRKKKCDYWIRTFVPGCQPGEFTLGNIKSYPGLTSYLVRVVSTNYNQHAMVFFKKVSQNREYFKITLYGRTKELTSELKENFIRFSQSLGLPENHIVFPVPIDQCIDG	0.17
D1 NGAL mutant (ligand) QDSTSDLIPAPPLSKVPLQQNFQDNQFQGKWYVVGLAGNAILREDKDPQKMYATIYELKEDKSYNVTSVLFRDDGCDYWIRTFVPGCQPGEFTLGNIKSYPGLTSYLVRVVSTNYNQHAMVFFKKVSQNREYFKITLYGRTKELTSELKENFIRFSKSLGLPENHIVFPVPIDQCIDG	0.1
C3 NGAL mutant (ligand) QDSTSDLIPAPPLSSVPLQQNFQDNQFQGKWYVVGLAGNAILREDKDPQTMYATIYELKEDKSYNVTSVLFQKKKCDYWIRTFVPGCQPGEFTLGNIKSYPGLTSYLVRVVSTNYNQHAMVFFKKVSQNREYFKITLYGRTKELTSELQENFIRFSQSLGLPENHIVFPVPIDQCIDG	0.26
H2 NGAL mutant (ligand) QDSTSDLIPAPPLSSVPLQQNFQDNQFQGKWYVVGLAGNAILREDKDPQKMYATIYELKEDKSYNVTSVLFRKKKCDYWIRTFVPGCQPGEFTLGNIQSYPGLTSYLVRVVSTNYNQFAMVFFKKVSQNQEYFKITLYGRTKELTSELQENFIRFSKSLGLPENNIVFPVPIDQCIDG	0.27
K3 NGAL mutant protein (ligand) QDSTSDLIPAPPLSSVPLQQNFQDNQFQGKWYVVGLAGNAILREDEDPQKMYATIYELKEDKSYNVTSVLFRDDGCDYWIRTFVPGCQPGEFTLGNIQSYPGLTSYLVRVVSTNYNQFAMVFFKKVSQNQEYFKITLYGRTKELTSELQENFIRFSKSLGLPENNIVFPVPIDQCIDG	19.6
B4 NGAL mutant (ligand) QDSTSDLIPAPPLSKVPLQQNFQDNQFQGKWYVVGLAGNAILREDEDPQKMYATIYELKEDKSYNVTSVLFRKKKCDYWIRTFVPGCQPGEFTLGNIQSYPGLTSYLVRVVSTNYNQHAMVFFKKVSQNREYFKITLYGRTKELTSELKENFIRFSKSLGLPENHIVFPVPIDQCIDG	0.13
